We go through one molecule from US20040142470, “Recombinase-based system for construction of adenovirus vectors” (published 2004).

This data set has as its target Cre recombinase (UniProt P06956 P06956:1-343). In words: cell_activity; plaque formation in cotransfected 293Cre4 cells relative to homologous recombination; pCA36loxΔ gave plaques only in 293Cre cells (Table 2). As to conditions: tags: stably expressed in 293Cre4 cells or from shuttle plasmid cassette (pLC2); chain copies: 4; BamHI/BglII overhangs. An excerpt:
The efficiency of Cre/lox mediated recombination was compared with that of homologous recombination, by measuring the numbers of virus plaques obtained from cotransfections of 293 cells versus the numbers obtained following cotransfections of 293Cre4 cells (see, for example, U.S. patent application Ser. No. 08/473,168, filed Jun. 7, 1995; see also WO96/40955, hereby incorporated by reference).

Sequence of Cre recombinase (P06956 whole entry, one chain of several): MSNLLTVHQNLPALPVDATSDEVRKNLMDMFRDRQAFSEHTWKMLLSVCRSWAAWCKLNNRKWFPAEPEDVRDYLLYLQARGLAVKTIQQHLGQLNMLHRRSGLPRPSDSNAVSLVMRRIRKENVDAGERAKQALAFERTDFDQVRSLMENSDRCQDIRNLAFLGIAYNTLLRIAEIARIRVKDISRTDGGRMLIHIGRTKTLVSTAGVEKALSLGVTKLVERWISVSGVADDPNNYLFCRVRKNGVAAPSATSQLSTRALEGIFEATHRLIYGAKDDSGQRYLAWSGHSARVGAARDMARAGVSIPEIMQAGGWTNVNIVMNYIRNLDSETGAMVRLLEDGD

B1: loxP linker AB3233/3234 (in pBHG10lox and pCA36lox / pCA36loxΔ) (dsDNA)
DNA 1: GATCCAATAACTTCGTATAGCATACATTATACGAAGTTATAAGTACTGAATTCG
DNA 2: GATCCGAATTCAGTACTTATAACTTCGTATAATGTATGCTATACGAAGTTATTG
For the molecule B1, the “relative plaque formation efficiency” value was 35 fold.
